Source: patent US20050050591A1 (published 2005)

Target: Cdc2MsB, A-type cyclin-dependent kinase of Medicago sativa (two-hybrid bait, GAL4 DNA binding domain fusion) (Medicago sativa, UniProt P04386 1-147; Q05006 1-294)
Assay: yeast two-hybrid (growth on selective medium, beta-galactosidase)
Description: FIG. 5. Interaction in a yeast two-hybrid assay of alfalfa Cdc2-type or Cdc2-related kinases and different D-type cyclins and myosin. The different Cdc2Ms kinase cDNAs are cloned in the pGBT9 bait vector and the cDNAs of the interacting partners in the pGAD424 activation domain vector. (A) Growth of PJ69-4a yeast cells transformed with expression vectors comprising the indicated protein coding sequences on the agar surface of a selective medium lacking tryptophan, leucine, adenine and histidine. The relative growth values were also determined in liquid cultures and are numerically indicated. (B) Quantification of β-galactosidase enzyme acitivity of yeast strains described in (A).
The yeast strain PJ69-4A [MATa trp1-901, leu2-3,112 ura3-52, his3-200 gal4delta, gal80delta GAL2-ADE2, LYS2:: GAL1-HIS3, met2::GAL7-lacZ] (James et al. 1996), which contains three reporter genes (HIS3, ADE2 and lacZ), was used in library screening, growth tests and β-galactosidase assays. Transformation of yeast with pGBT9, pGAD424, pBD-GAL4 and pAD-GAL4 constructs was performed as described by Schiesti and Gietz (1989). The transformation mixture was plated on yeast dropout selection media either lacking leucine and tryptophan (SD-Trp-Leu) for testing the transformation efficiency or on media lacking leucine, tryptophan and histidine, for testing protein-protein interactions. […]

B1: MtCycDm, novel D-type cyclin of Medicago truncatula (two-hybrid prey, GAL4 activation domain fusion) (other, not shown: large carriers)
chain: MIEEEQLPAILMPSDCELLCGEDSSEVLTGDLPECSSDLDSSSSSQLPSSSLFAEEEEDSIAVFIEHEFKFVPGFDYVSRFQSRSLESSTREEAIAWILKVHEYYGFQPLTAYLSVNYMDRFLDSRPLPGIKWMATATFICCMFVFSSKDGGPLVPSLLDFQIEGAKYIFQPRTMLIMELLVLTILDWRLRSITHLVSSVSLRATRFTGTFNHFIISRATEIILSNIRDASFLTYRPSCIAAAAILSAANEIPNWSFVNPEHAESWCEGLSKEKIIGCYELIQEIVSSNNRRNAPKVLPQLRVTARTTRWSTVSSLSSSPSSSSSPSYSLSYKKRKLNSCFWVDVDKGNSEGREKKQTR
notes: Tested only as a yeast two-hybrid fusion; The order GAL4 domain then insert follows the vector design; also called cyclin D of the invention; MTCYCDM gene product
- binding result: no binding
